This series deals with the molecule itself. Description: crystal structure.

Usually stoichiometry N stands for the number of molecules, sites or subunits per partner or assembly.

B1: α-carbonic anhydrase from Persephonella marina EX-H1 (enzyme, UniProt C0QRB5 20-243, looked up)
chain: GGGWSYHGEHGPEHWGDLKDEYIMCKIGKNQSPVDINRIVDAKLKPIKIEYRAGATKVLNNGHTIKVSYEPGSYIVVDGIKFELKQFHFHAPSEHKLKGQHYPFEAHFVHADKHGNLAVIGVFFKEGRENPILEKIWKVMPENAGEEVKLAHKINAEDLLPKDRDYYRYSGSLTTPPCSEGVRWIVMEEEMEMSKEQIEKFRKIMGGDTNRPVQPLNARMIMEK
Consider B1, for which the “stoichiometry N” value turned out to be 2.

The record behind these values is paper PMC6602146 (Molecules and Cells, 2019).
